Measured values as given in PMC4977002.

Experiments:
Experiment in all cases: SPR
[1] = target: h9C12 N434S (mouse | human)
[2] = target: h9C12 I253A (mouse | human)
[3] = target: h9C12 P329A (mouse | human)
[4] = target: h9C12 H433K (mouse | human)
[5] = target: h9C12 N434D (mouse | human)
[6] = target: h9C12 N434A (mouse | human)
[7] = target: h9C12 L235A (mouse | human)
[8] = target: h9C12 H310A (mouse | human)
[9] = target: humanized 9C12 (h9C12), wild type, human IgG1/kappa (mouse | human)
[10] = target: h9C12 H435A (mouse | human)

Kd [1]: 3.6 µM
Kd [2]: 0.565 µM
koff [2]: 0.177 s⁻¹
Kd [3]: 0.22 µM
koff [3]: 0.062 s⁻¹
Kd [4]: 21.5 µM
Kd [5]: 4.5 µM
Kd [6]: 2 µM
Kd [7]: 0.226 µM
koff [7]: 0.062 s⁻¹
Kd [8]: 0.262 µM
koff [8]: 0.086 s⁻¹
Kd [9]: 0.212 µM
Kd [10]: 5.53 µM
Substance: Recombinant human TRIM21 PRYSPRY (from UniProt P19474 287-465) (domain or fragment)
